Test results: article PMC2112702 (The Journal of Cell Biology, 1983)

Biological target: clathrin (Mr ~180,000 polypeptide) (bovine (calf brain), UniProt P49951 1-1675)
Assay: co-sedimentation

Sequence of clathrin (Mr ~180,000 polypeptide) (P49951 whole entry): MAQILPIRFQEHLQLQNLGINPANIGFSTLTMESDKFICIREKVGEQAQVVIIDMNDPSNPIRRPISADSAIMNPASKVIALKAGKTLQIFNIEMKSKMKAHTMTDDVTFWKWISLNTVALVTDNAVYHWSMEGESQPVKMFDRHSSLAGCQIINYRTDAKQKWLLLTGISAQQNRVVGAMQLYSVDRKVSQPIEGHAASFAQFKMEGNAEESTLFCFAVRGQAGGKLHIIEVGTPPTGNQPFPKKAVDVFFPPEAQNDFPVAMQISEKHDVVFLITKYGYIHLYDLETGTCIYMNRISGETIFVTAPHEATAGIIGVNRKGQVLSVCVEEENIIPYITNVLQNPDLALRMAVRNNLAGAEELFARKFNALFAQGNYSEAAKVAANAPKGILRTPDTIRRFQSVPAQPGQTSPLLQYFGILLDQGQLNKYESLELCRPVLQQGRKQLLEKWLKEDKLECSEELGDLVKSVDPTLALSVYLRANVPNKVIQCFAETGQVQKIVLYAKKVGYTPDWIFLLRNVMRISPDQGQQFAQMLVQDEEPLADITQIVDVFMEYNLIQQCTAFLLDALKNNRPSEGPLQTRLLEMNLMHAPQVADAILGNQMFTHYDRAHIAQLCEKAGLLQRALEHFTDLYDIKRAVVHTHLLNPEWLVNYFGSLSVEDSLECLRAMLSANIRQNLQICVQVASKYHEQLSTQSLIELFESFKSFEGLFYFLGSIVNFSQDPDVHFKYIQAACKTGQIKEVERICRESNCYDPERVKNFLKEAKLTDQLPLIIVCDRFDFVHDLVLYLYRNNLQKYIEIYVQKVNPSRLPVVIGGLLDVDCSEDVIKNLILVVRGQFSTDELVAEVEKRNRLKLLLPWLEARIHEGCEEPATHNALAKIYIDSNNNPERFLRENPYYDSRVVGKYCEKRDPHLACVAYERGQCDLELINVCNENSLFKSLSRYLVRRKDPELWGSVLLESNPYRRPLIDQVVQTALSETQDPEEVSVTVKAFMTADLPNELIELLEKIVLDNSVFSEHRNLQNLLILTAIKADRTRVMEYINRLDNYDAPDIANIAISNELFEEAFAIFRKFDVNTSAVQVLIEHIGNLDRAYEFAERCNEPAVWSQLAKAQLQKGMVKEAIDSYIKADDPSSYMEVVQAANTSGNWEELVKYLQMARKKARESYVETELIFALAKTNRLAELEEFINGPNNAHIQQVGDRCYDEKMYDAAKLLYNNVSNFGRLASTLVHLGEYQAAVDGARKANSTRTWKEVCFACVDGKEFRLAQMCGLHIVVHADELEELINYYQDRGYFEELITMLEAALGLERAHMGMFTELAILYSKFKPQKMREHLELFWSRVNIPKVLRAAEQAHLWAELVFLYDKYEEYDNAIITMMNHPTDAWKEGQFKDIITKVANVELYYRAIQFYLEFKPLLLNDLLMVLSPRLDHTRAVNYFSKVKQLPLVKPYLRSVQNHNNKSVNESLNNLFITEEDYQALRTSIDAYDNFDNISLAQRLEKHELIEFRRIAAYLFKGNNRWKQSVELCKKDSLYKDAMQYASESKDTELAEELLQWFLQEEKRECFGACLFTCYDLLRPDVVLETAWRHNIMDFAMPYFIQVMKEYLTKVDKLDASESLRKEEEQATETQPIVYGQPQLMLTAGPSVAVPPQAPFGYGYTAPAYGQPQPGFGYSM

stoichiometry N	Binder
0.83 mol per 3.00 mol of 180,000 clathrin (one triskelion)	clathrin light chain, Mr 36,000 (natural protein, bovine (calf brain), UniProt P04973 1-243, looked up) MAELDPFGVPAGGPALGNGVAGEEDPAAAFLAQQESEIAGIENDEAFAILDGGAPGSQPHGEPPGIPDAVDGVTNGDYYQESNGPTDSYAAISQVDRLQSEPESIRKWREEQTERLEALDANSRKQEAEWKEKAIKELDEWYARQDEQLQKTKANNRVADEAFYKQPFADVIGYVTNINHPCYSLEQAAEEAFVNDIEESSPGTEWERVARLCDFNPKSSKQAKDVSRMRSVLISLKQAPLVH
1.62 mol per 3.00 mol of 180,000 clathrin (one triskelion)	clathrin light chain, Mr 33,000 (natural protein, bovine (calf brain), UniProt P04975 1-228, looked up) MADDFGFFSSSESGAPEAAEEDPAAAFLAQQESEIAGIENDEGFGAPAGSQGGLAQPGPASGASEDMGATVNGDVFQEANGPADGYAAIAQADRLTQEPESIRKWREEQRKRLQELDAASKVMEQEWREKAKKDLEEWNQRQSEQVEKNKINNRIADKAFYQQPDADIIGYVASEEAFVKESKEETPGTEWEKVAQLCDFNPKSSKQCKDVSRLRSVLMSLKQTPLSR
